T1: human ABCC4 (Homo sapiens, UniProt O15439)
T1 construct: expressed in transfected cells
T1 sequence (O15439 1-1325): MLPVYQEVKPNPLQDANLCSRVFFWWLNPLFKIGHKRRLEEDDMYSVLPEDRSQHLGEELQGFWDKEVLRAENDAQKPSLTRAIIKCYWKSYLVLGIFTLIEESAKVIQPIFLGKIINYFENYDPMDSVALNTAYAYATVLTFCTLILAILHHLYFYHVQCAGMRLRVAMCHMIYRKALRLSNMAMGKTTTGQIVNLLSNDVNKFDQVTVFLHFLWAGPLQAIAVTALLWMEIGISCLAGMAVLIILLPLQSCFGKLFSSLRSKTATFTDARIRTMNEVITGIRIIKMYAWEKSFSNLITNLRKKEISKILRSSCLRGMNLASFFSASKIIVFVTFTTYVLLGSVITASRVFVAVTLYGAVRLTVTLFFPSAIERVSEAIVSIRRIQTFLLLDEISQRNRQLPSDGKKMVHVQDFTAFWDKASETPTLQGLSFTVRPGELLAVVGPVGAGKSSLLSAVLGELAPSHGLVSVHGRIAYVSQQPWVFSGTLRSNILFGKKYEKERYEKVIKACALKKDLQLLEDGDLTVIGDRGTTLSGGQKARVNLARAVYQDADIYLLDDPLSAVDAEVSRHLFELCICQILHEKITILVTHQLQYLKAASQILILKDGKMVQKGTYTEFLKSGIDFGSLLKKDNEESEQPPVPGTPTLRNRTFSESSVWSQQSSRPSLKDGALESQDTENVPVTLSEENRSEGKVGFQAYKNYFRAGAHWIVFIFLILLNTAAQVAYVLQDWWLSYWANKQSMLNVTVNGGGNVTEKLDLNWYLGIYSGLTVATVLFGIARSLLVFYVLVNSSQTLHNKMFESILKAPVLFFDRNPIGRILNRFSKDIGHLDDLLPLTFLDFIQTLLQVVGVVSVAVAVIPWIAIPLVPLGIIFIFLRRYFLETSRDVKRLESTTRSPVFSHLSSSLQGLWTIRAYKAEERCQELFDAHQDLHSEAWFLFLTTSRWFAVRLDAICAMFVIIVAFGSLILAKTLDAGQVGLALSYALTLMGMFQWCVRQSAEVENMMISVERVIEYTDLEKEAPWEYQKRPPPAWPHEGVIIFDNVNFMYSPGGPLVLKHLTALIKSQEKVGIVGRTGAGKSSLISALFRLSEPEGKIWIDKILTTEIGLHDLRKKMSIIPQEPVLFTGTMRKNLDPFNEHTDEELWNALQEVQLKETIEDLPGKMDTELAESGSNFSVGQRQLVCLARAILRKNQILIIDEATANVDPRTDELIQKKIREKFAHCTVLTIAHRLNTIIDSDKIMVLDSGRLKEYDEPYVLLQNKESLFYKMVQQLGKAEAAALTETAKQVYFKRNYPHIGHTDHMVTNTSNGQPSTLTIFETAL

B1: C4.1146: anti-ABCC4 antibody raised in rats; VH SEQ ID NO: 32, VL SEQ ID NO: 152 (antibody, V domains shown)
VH: EVKLVESGGGLVQPGRSLKLSCAASGFTFSNYDMAWVRQAPTKGLEWVASIIPSGGTSYYRDSVKGRFTVSRDNAKSTLYLQMDSLRSEDTATYYCARLTTSHYYVMDAWGQGASVTVSS
VL: DIWMTKSPSSMSASLGDRVTITCQASQDIGNNLIWFQQKPGKSPRRMIYYATNLANGVPSRFSGSRSGSDYSLTIISLESEDMADYHCLQYKQYPYTFGAGTKLEIK
B2: C4.927: anti-ABCC4 antibody raised in rats; VH SEQ ID NO: 4, VL SEQ ID NO: 127 (antibody, V domains shown)
VH: EVQLVESGPGLVQPSRTLSLTCTVSGFSLTSYGVSWVRQPPGKGLEWIAAIWSGGSTDYNSALKSRLSISRDTSKSQVLLKMNSLQTEDTAMYFCARGATEGIDYWGQGASVTVSS
VL: AIQVTQSPTSLSASLGDRVTLTCRASQDINNKMAWYQQKPGEVPQLLIYYASTLQSGTPSRFSGSGSGTDFSFTISHLQSEDFATYYCLQGYSLYTFGAGTKLELK
B3: C4.976: anti-ABCC4 antibody raised in rats; VH SEQ ID NO: 12, VL SEQ ID NO: 132 (antibody, V domains shown)
VH: EVKLLESGGGLVQPGRSLKVSCVASGFIFSDYYMAWVRQAPTKGLEWVAYINYDGGSTYYGDSVKGRFTISRDNAKSSLYLQMNSLRFEDMATYYCARRDYGSKFDYWGQGVMVTVSS
VL: EIVIIQSPALAVSLGQRATISCKTNQNVDYYGNSYIHWYQQKPGQQPKLLIYLASNLASGIPARFSGRGSGTDFTLTIDPVEADDPATYYCQQSRNLPFTFGSGTKLELK
B4: C4.1155: anti-ABCC4 antibody raised in rats; VH SEQ ID NO: 35, VL SEQ ID NO: 154 (antibody, V domains shown)
VH: EVKLLESGGGLVQPGGSLRLSCATSGFSFTDFYMSWIRQPLGKAPEWLGVIRNRAIGFRTEYNPSVKGRFTISRDNTQNILYLQMNTLRTEDTAIYYCARNNLGFDYWGQGASVTVSS
VL: TPPSLSVAIGQSVSISCKSSQSLVYSDGKTYLHWLLQISGRSPERLIYQVSNLDSGVPDRFSGTGSQKDFTLKISRVEAKDLGFYYCAQTTHFPYTFGAGTKLELK
B5: C4.886: anti-ABCC4 antibody raised in rats; VH SEQ ID NO: 2, VL SEQ ID NO: 125 (antibody, V domains shown)
VH: EVKLLESGGDLLQPGRSLKLSCAASGFTFNDYNMAWVRQAPKKGLQWVATILYDGSRTYYRDSVKGRFTISRDNSKSTLYLQMDSLRSEDTATYYCTTEFGYGSSHWFACWGQGTLVTVSS
VL: DVVLTQTPVSLPVSLGGQASISCRSSQSLVHSNGNTYLHWYLQKPGQSPQLLISRISNRFSGVPDRFSGSGSGTDFTLKISRVEPEDLGDYYCFQSTHFPHTFGAGTKLEIK
B6: C4.961: anti-ABCC4 antibody raised in rats; VH SEQ ID NO: 9, VL SEQ ID NO: 130 (antibody, V domains shown)
VH: EVQLKESGPGLVQPSQTLSLTCAVSGFSLTNYHVHWVRQPPGKGLEWMGVMWSDGDTSYNSALKSRLSISRDTSKSQFFLKMNSLQTEDTATYYCARGGVYFDYWGQGASVTVSS
VL: DIVMTQSPSSLAVSAGETVTINCKSSQSLLYSGNQKNSLAWYQQKPGQSPKLLIYWASTRQSGVPDRFIGSGSGTDFTLTFSSVQAEDLAIYYCQHYFDTPYTFGAGTKLELK

What was measured:
[1] = biological target: T1, human ABCC4; assay: Flow cytometry (FACS) binding to C6 cells stably transfected to express human ABCC4 (different experiment, Table 4); conditions: for Human ABCC4 binding: C6 cells stably transfected to express human ABCC4, FACS, different experiment, Table 4; for binding to human ABCC4 expressed on cell surface: Table 4 study, stated in words
Experimental: (§1) Binding titration of recombinant antibodies to ABCC4 transfectants was performed by serial dilution of antibodies from about 666 nM. Diluted antibody in flow cytometry buffer was incubated with cells on ice for 30 min. After 2 washes with flow cytometry buffer, bound antibody was detected with PE-labeled F(ab′)2 fragment goat anti-human IgG (Jackson ImmunoResearch) diluted 1:200 in flow cytometry buffer and incubated with cells for 20 min on ice. After 2 washes with flow cytometry buffer fluorescence was measured on an Attune N×T flow cytometer. Data were analyzed with GraphPad Prism 8.0 software to determine EC50's.
(§2) Human embryonic kidney HEK 293T cells and murine C6 (ATCC CCL-107) were transfected with human or cynomolgus ABCC4 cDNA with C-terminal fused FLAG tag in a pMONO-hygro vector with Lipofectamine 3000 (Invitrogen #L3000001). The cells were treated with 0.2 mg/ml and 0.5 mg/ml hygromycin respectively for about 2 weeks while cultivated in DMEM and 10% FBS with 0.2 mg/ml hygromycin and 0.5 mg/ml hygromycin, respectively. The cells were washed with PBS, and stained with […] of anti-FLAG-PE after fixing and permeablization. Clones expressing ABCC4 were single-cell sorted into 200 μl DMEM with 10% FBS using a BD Aria FACS machine and cultivated in 96 well plates using standard techniques in an incubator at 37° C. and 5% CO 2. Two weeks later clones expressing high levels of ABCC4 were screened and amplified.
(§3) Antibody binding to cells was evaluated by flow cytometry. Murine C6 cells stably transfected to express human or cynomolgus ABCC4 were washed once in flow cytometry buffer (PBS+2% FBS+0.02% sodium azide), resuspended at 2×10^6 cells/mL in flow cytometry buffer, and dispensed into 96-well microtiter plates at 0.1 mL/well. Recombinant antibodies were added to cells at 5 ug/mL for initial binding confirmation, or serially diluted from 100 ug/mL in flow cytometry buffer. After incubating cells on ice for 30 min, cells were washed twice with flow cytometry buffer. Bound antibody was detected with PE-labeled F(ab′)2 fragment goat anti-human IgG (Jackson ImmunoResearch) and evaluated on an Attune N×T flow cytometer. EC50 is calculated to be the concentration of antibody that gives half maximal response.
(§4) In a different experiment, using a different C6.cC4 cell line, detecting the binding of anti-ABCC4 antibodies to C6 cells stably transfected to express human ABCC4 measured by FACS and to C6 cells stably transfected to express cynomolgus ABCC4 measured by FACS, the results set forth in Table 4 were obtained. Negative (−)=Rmax (MFI) below background level. Positive (+)=MFI>3× background level.

[2] = tested on: cynomolgus ABCC4; assay: Flow cytometry (FACS) binding to C6 cells stably transfected to express cynomolgus ABCC4 (different experiment, different C6.cC4 cell line, Table 4); set-up: key to Cynomolgus ABCC4 binding: Negative (−)=Rmax (MFI) below background level; Positive (+)=MFI>3× background level; conditions: for Cynomolgus ABCC4 binding: different C6.cC4 cell line, C6 cells stably transfected to express cynomolgus ABCC4, FACS, Table 4; for binding to cynomolgus ABCC4 expressed on cell surface: Table 4 study, stated in words
Experimental: as §1, §2, §3, §4

[3] = biological target: T1, human ABCC4; assay: Flow cytometry (FACS) binding to C6 cells stably transfected to express human ABCC4 (Table 3 study); conditions: for Human ABCC4 binding: C6 cells stably transfected to express human ABCC4, FACS, Table 3; for binding to human ABCC4 expressed on cell surface: Table 3 study, stated in words
Experimental: as §1, §2, §3
(§5) Table 3 lists the following characteristics of the rat anti-ABCC4 antibodies tested: binding to C6 cells stably transfected to express human ABCC4 measured by FACS and binding to C6 cells stably transfected to express cynomolgus ABCC4 measured by FACS. Negative (−) is defined as maximum response (Rmax(MFI)) below background level. Positive (+) is defined as MFI>1000.

[4] = tested on: cynomolgus ABCC4; assay: Flow cytometry (FACS) binding to C6 cells stably transfected to express cynomolgus ABCC4 (Table 3 study); set-up: key to Cynomolgus ABCC4 binding: Negative (−) is defined as maximum response (Rmax(MFI)) below background level; Positive (+) is defined as MFI>1000; conditions: for Cynomolgus ABCC4 binding: C6 cells stably transfected to express cynomolgus ABCC4, FACS, Table 3; for binding to cynomolgus ABCC4 expressed on cell surface: Table 3 study, stated in words
Experimental: as §1, §2, §3, §5

Molecule	Human ABCC4 binding [1]	Cynomolgus ABCC4 binding [2]	Human ABCC4 binding [3]	binding to human ABCC4 expressed on cell surface [3]	Cynomolgus ABCC4 binding [4]	binding to cynomolgus ABCC4 expressed on cell surface [4]	binding to human ABCC4 expressed on cell surface [1]	binding to cynomolgus ABCC4 expressed on cell surface [2]
B1	+ (Positive (+)=MFI>3× background level)	−						
B2	+ (Positive (+)=MFI>3× background level)	−						
B3	+ (Positive (+)=MFI>3× background level)	+ (Positive (+)=MFI>3× background level)	+ (Positive (+) is defined as MFI>1000)	bind to both human and cynomolgus ABCC4	+ (Positive (+) is defined as MFI>1000)	bind to both human and cynomolgus ABCC4	bind to both human and cynomolgus ABCC4	bind to both human and cynomolgus ABCC4
B4	+ (Positive (+)=MFI>3× background level)	−						
B5	+ (Positive (+)=MFI>3× background level)	+ (Positive (+)=MFI>3× background level)	+ (Positive (+) is defined as MFI>1000)		−		bind to both human and cynomolgus ABCC4	bind to both human and cynomolgus ABCC4
B6	+ (Positive (+)=MFI>3× background level)	+ (Positive (+)=MFI>3× background level)	+ (Positive (+) is defined as MFI>1000)	bind to both human and cynomolgus ABCC4	+ (Positive (+) is defined as MFI>1000)	bind to both human and cynomolgus ABCC4	bind to both human and cynomolgus ABCC4	bind to both human and cynomolgus ABCC4

— patent US20240010747A1, “ANTI-MRP4 (ENCODED BY ABCC4 GENE) ANTIBODIES AND USES THEREOF” (Kenjockety Biotechnology, Inc., priority 2020, published 2024)
